T1: GST-tagged IsdA (Staphylococcus aureus, UniProt A5IS16 47-316)
T1 sequence: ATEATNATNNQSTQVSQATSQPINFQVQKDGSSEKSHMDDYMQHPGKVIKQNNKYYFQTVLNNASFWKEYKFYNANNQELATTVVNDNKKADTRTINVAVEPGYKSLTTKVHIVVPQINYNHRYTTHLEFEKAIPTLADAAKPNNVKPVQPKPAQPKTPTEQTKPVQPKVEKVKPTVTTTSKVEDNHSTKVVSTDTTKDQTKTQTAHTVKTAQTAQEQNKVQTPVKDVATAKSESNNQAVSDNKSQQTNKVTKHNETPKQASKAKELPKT


Experiments:
GST-tagged IsdA = biological target: T1, GST-tagged IsdA; test: cell-based or functional assay
[1] = biological target: T2, Poly-histidine tagged IsdB (Staphylococcus aureus, UniProt A5IS15 41-613); test: ELISA, coated poly-His IsdB
T2 construct: also called IsdBFL; recombinant IsdB
Procedure: Proteins were used to coat Nunc MaxiSorp 96-well plates at a concentration of 1 μg ml⁻¹ PBS. Plates were washed and incubated with PBS-Tween and variable concentrations of MAbs.

GST-tagged IsdBC = GST-tagged IsdBC (Staphylococcus aureus Newman, UniProt A5IS15 328-645); test: cell-based or functional assay

Binder	Δheme binding: percent change in Δ peak absorbance at 405 nm and 368 nm (GST-tagged IsdA) [%]	binding result [1]	Δheme binding: percent change in Δ peak absorbance at 405 nm and 368 nm (GST-tagged IsdBC) [%]
MAb 5H8 (antibody, V domains shown, also called 5H8.9) VH: GLTGEPGTSVKMSCRTSGYTFTEYTMHWVKQSHEKRLEWIGGIDPSNGDTSYNQKFKGKATLTVDKSSSSAYMDLRSLTSVDSAIYYCARLEGVLPLDYWGHGTTLTVSS VL: DIVMTQSQKFMSTSVRDRVAVTCKASQNVGTNVAWYQQKPGQSPKALIYSASYRYSGVPDRFTGSGSGTDFTLTISNVQSEDLAEYFCQQYNSYPYTFGGGTKLEVK	0.5	no binding	
MAb 3H11 (antibody, V domains shown, also called 3H11.47) VH: SLDLTGEPGASVKMSCRTSGYTFTEYTMHWVKQSHEKSLEWIGGIDPDNGDTSFNQKFKGKATLTVDKSSSTAYMELRSLTYDDTAIYLCARLEGVLPLDYWGQGTTLTVSS VL: DIVMTQSQKFMSTSVRDRVAVTCKASQNVGTNVAWYQQKPGQSPKALIYSASYRYSGVPDRFTGSGSGTDFTLTISNVQSEDLAEYFCQQYNSYPYTFGGGTKLEVK	0.5	no binding	
MAb 7D4 (antibody, V domains shown) VH: EVQLQESGPELVKPGTSVWISCKTSGFTFTKYTMHWVKQSHGKTLEWIGGIDPNNGDTSYNQKFKDKATLTVDKSSSTAYMELRSLTSEDSAVFFCVRLEGSLPLDYWGQGTTLTVSS VL: DVGMTQTPLSLPVSLGDQASISCGSSQSLLHSNGKTYLHWYLQKPGQSPKLLIYKVSNRFSGVPDRFSGSGSGTYFTLKITRVEAEDLGVYFCSQTTHVPFTFGSGTKLEIK	-0.6		
MAb 1B8 (antibody, V domains shown) VH: EVQLQESGPELVKPGTSVWISCKTSGFTFTKYTMHWVKQSHGKTLEWIGGIDPNNGDTSYNQKFKDKATLTVDKSSSTAYMELRSLTSEDSAVFFCVRLEGSLPLDYWGQGTTLTVSS VL: DVVMTQTPLSLPVSLGDQASISCRSSQSLVHSNGNTYLHWYLQKPGQSPKLLIYKVSSRFSGVPDRFSGSGSGTDFTLKISRVEAEDLGVYFCSQSTHVPYTFGGGTKLEIKR	0.5		
MAb 3D8 (antibody, V domains shown) VH: QVQLQQSGAELVRPGTSVKVSCKASGNAFTNYLIEWIKQRPGQGLEWIGVINPGSGITNYNEKFKGKATLTADKSSNTAYMQLSSLSSDDSAVYFCSGSANWFAYWGQGTLVTVSA VL: DVVMTQTPLSLPVSLGDQASISCRSSQSLVYSNGNTYLHWFLQKPGQSPKLLIYKVSNRFSGVPDRFSGSGSGTDFTLKISRVEAEDLGVYFCSQTTHIPLTFGAGTKLELK	34		29.4
MAb 7E9 (antibody, V domains shown) VH: DVQLQESGPGLVKPSQSLSLTCSVTGHSITSGYYWNWIRQFPGNKLEWMGYISFDGRNKYNPSLKNRISITRDTSKNQFFLKLNSVTSEDTATYFCTRLSYSTLDYWGQGTSVTVSS VL: DVVMTQTPLSLPVSLGDQASISCRSSQSLLYSNGNTYLHWYLQKPGQSPKLLIYKVSNRFSGVPDRFSASGSGTDFTLKISRVEAEDLGVYFCSQSTHVPLTFGAGTKLELK	35		29
MAb 4H7 (antibody, V domains shown) VH: EVQLLQSGPELVKPGTSVKMSCRTSGYTFTEYTMHWVKQSHEKRLEWIGGIDPSNGDTSYNQKFKGKATLTVDKSSSSAYMDLRSLTSVDSAIYYCARLEGVLPLDYWGHGTTLTVSS VL: DVVMTQTPLSLPVSLGDQASISCRSSQSLVYSNGNTYLHWFLQKPGQSPKLLIYKVSNRFSGVPDRFSGSGSGTDFTLKISRVEAEDLGVYFCSQTTHIPLTFGAGTKLELK	34.4		29
